Experimental findings from the RNAGym collection of RNA variant scans (doi:10.7554/elife.80360) are described below.

B1: Hammerhead Ribozyme (parent)
chain: ACCGGAUGUGCUUUCCGGUCUGAUGAGUCCGUGAGGACGAAACAG

The variants in the data set derive from B1. The data set can be described thus: self-cleavage, relative activity (ratio to wild type); higher = more cleavage; co-transcriptional.
Take G8A U13C: the self-cleavage was found to be 1.2.
The value for C16U A41G was 0.376; that for G22C A42U was 0.368; that for G5A A37C was 0.542.
The value for G18U C38G was 0.442.
As for C3A U9C, the figure is 0.756.
Turning to C11A C38G, the self-cleavage is 0.881.
In the case of U24A A26C, the self-cleavage was determined as 0.602.
On to G8U G33U, for which the self-cleavage came to 1.07.
As for C3U A40U, the figure is 0.36.
As for G31C G45U, the figure is 0.757; as for U13G A42C, 0.276; as for U13C U19A, 0.351.
As for A1C G33U, the figure is 0.561; as for C2G U19A, 0.294; as for A6C G25C, 0.24.
With A23G A44G, the self-cleavage came out at 0.55.
As for G17A A26C, the figure is 0.272; as for U14G G45C, 0.879; as for A23G G31A, 0.403.
As for A6U A37C, the figure is 0.677.
As for C20U U21A, the figure is 0.358; as for C11A C16A, 1.41.
Regarding U32G A44G, the self-cleavage amounted to 0.898.
The value for A26G G39C was 0.309.
As for C2U U28C, the figure is 0.79; as for G17U C20A, 0.422.
With U32C G36U, the self-cleavage stood at 0.73.
As for U13A U28C, the figure is 1.58; as for A1G A37U, 1.02.
As for U19C, the figure is 0.737; as for G8A G35C, 0.543; as for U19A G35A, 0.317.
In the case of U24A G39U, the self-cleavage was 0.464.
On to U13G G22U, for which the self-cleavage came out at 0.306.
As for U32C A37G, the figure is 0.987; as for G18U C30U, 0.849.
For the variant U21G A40C, the self-cleavage was 0.312.
With U21G A40G, the self-cleavage was found to be 0.345.
The value for G17C U19G was 0.337; that for G17C U19A was 0.335.
As for A6C U7C, the figure is 0.577.
As to C20A G35A, the self-cleavage stood at 0.446.
The value for G4U G36A was 0.321; that for C29U C43G was 0.319.
As to A6G A37C, the self-cleavage came to 0.656.
With G18A G27A, the self-cleavage came to 0.519.
As for U19C A40C, the figure is 0.305.
The value for G8U G18C was 0.513.
For the variant U9C G25C, the self-cleavage amounted to 0.294.
The value for G5U G35U was 0.516.
For C30A G45U, the self-cleavage stood at 0.545.
The value for A6U C16A was 0.471; that for U12C G25C was 0.354.
As for C15U U21G, the figure is 0.859.
Regarding C3U G33A, the self-cleavage was 0.953.
The value for U13A U19G was 0.425; that for A34U C43U was 0.304; that for G22U A40C was 0.368.
The value for G22U U28G was 0.294; that for C16U A44U was 0.845.
The value for G25A C43U was 0.341.
For C2A G18C, the self-cleavage is 0.922.
As for U28A A37G, the figure is 0.325; as for U28A A37U, 0.895; as for C11G C20G, 0.261.
As for C29G U32A, the figure is 0.847; as for A1U G35U, 0.451.
The value for C2G U9A was 0.367; that for U12C C30A was 0.955; that for G18A A41C was 0.328.
In the case of C29A A40C, the self-cleavage turned out to be 0.354.
The value for C20U C43A was 0.264; that for C29U A42G was 0.283; that for A37C C38A was 0.535.
As for U7C C15U, the figure is 0.995.
Take C20A G22U: the self-cleavage came to 0.341.
The value for U7A U19A was 0.377.
As for U12C G31A, the figure is 0.871; as for U7A U12C, 0.79; as for U28A G33U, 0.884.
The value for U24C C29A was 0.416; that for C2G G31A was 0.43; that for U9C C16G was 0.626.
On to C11G A42G, for which the self-cleavage was determined as 0.303.
The value for C11G A42C was 0.422; that for G10U C30U was 1.07.
The value for A26U C30G was 0.423; that for C3A C15A was 0.312.
Take U19G C29G: the self-cleavage was 0.307.
In the case of U24G G25C, the self-cleavage turned out to be 0.294.
For the variant U24G G25A, the self-cleavage came to 0.494.
The value for C16A A34G was 1.17; that for A1G G33A was 1.53; that for C2G U14C was 0.317.
The value for U28G A41C was 0.348; that for G18A G22A was 0.276; that for C2G U12G was 0.31.
Regarding C30U G35U, the self-cleavage came out at 1.18.
As for G25U U32G, the figure is 0.392.
The value for U7G A37U was 0.683; that for U28C C29U was 0.688.
As for C16A G25A, the figure is 0.347.
In the case of G4C A42U, the self-cleavage is 0.297.
As for U14A U32C, the figure is 0.946.
On to U7A A42U, for which the self-cleavage is 0.257.
The value for C29U G36C was 0.603; that for G8U G36C was 0.885.
Turning to C3U U32C, the self-cleavage was 0.962.
As for C29U G31A, the figure is 0.994; as for G33U G36A, 0.765.
As for U21A G25U, the figure is 0.333; as for G4C U13G, 0.962.
In the case of G17C G33A, the self-cleavage was 0.564.
Consider C20G U32A, for which the self-cleavage is 0.305.
As for G17U G31A, the figure is 0.918; as for U24A G45C, 0.639; as for A6G U19A, 0.278.
As to U32C A40C, the self-cleavage came out at 0.626.
Regarding C11A G39A, the self-cleavage turned out to be 0.303.
As for U28A G35U, the figure is 0.489; as for G10C C11G, 1.17; as for G27U G33C, 0.484.
As for U19G G36C, the figure is 0.351; as for G8U C43U, 0.677; as for U12C C43U, 0.486.
As for G25U A26U, the figure is 0.343.
Take G10A C20A: the self-cleavage was found to be 0.451.
The value for G10C A26C was 0.447; that for C15A G27U was 0.4; that for G18U U19A was 0.34.
As for U13G C29U, the figure is 0.82; as for G31C G35A, 0.966; as for G31C G35U, 0.698.
The value for C2G A40U was 0.287.
Consider G17U A40G, for which the self-cleavage worked out at 0.388.
The value for A1C A42G was 0.367; that for C29U C38A was 0.485.
The value for C2U U7A was 1.58.
As for G31U G35A, the figure is 0.879.
For C15G A40G, the self-cleavage came to 0.42.
As to C2A A44C, the self-cleavage is 0.425.
The value for C3U U14A was 0.71; that for C11G A41C was 0.366.
As for U7G A34U, the figure is 1.53; as for C30G A37G, 0.571.
As for U14A G27C, the figure is 0.661.
For U19C C38A, the self-cleavage turned out to be 0.414.
The value for U12G G39C was 0.424.
The value for G33U G35C was 0.964; that for G31C C43A was 0.392; that for C15A A40U was 0.394.
Turning to A26C G36U, the self-cleavage came to 0.355.
Regarding U32C C43A, the self-cleavage amounted to 0.315.
As for A6U G22C, the figure is 0.354; as for G18C G31A, 0.649.
The value for C11U A41C was 0.337.
As for C3G A34G, the figure is 0.409; as for G8U G27A, 0.922; as for U13C C38A, 0.601.
Regarding A1G G22C, the self-cleavage was determined as 0.376.
Take G18A A37U: the self-cleavage came out at 0.55.
Take G8U U21A: the self-cleavage amounted to 0.782.
As for A26U A44U, the figure is 0.443; as for U7C G36C, 0.348.
In the case of U9C G33U, the self-cleavage was 1.24.
In the case of C20U U32A, the self-cleavage turned out to be 0.506.
